Experimental data reported in US20260242448A1 (INSTITUTE OF MICROBIOLOGY CHINESE ACADEMY OF SCIENCES, published 2026).

Experiments:
[1] = target: T1, S protein of the SARS-CoV-2 prototype strain on pseudo-virus (SARS-CoV-2 prototype strain, UniProt P0DTC2 14-1273); assay: cell-based or functional assay
[2] = target: T1, S protein of the SARS-CoV-2 prototype …; assay: cell-based or functional assay; remark: listed apart in the source
[3] = target: T2, RBD of the S protein of the 2019 original strain (2019-nCoV) (SARS-CoV-2 (2019-nCoV original strain), UniProt P0DTC2 319-541); assay: ELISA on plate-coated RBD (1 µg/mL), HRP anti-human Fc detection, OD450
T2 construct: domain: RBD; also called 2019-nCoV RBD; SARS-CoV-2 RBD

B1: monoclonal antibody CoV56 (antibody, V domains shown)
VH: EVQLVESGGGVVQPGGSLRLSCAVSGFTFDDYAMHWVRQAPGKGLDWVSLISGDGSYTYYADSVKGRFTISRDSSKNSLYLQMNSLRTEDTALYYCAKAQTPTLWWLQDAFDIWGQGTMVTVSS
VL: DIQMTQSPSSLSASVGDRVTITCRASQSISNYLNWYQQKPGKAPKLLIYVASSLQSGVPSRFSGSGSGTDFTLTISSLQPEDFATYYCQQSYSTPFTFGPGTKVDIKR
notes: also called monoclonal antibody 56; 56IgG
Neutralization activity (IC50) against pseudo-virus [1]: > 2000 ng/mL
Neutralization Effects (IC50) against SARS-CoV-2 pseudo-viruses [2]: 8380 ng/mL
EC50 [3]: 41.8 pM

B2: monoclonal antibody L4.65 (antibody, V domains shown)
VH: QITLKESGPTLVKPTQTLTLTCTFSGFSLSTSGVGVAWIRQPPGKALEWLALIYWDNDKRSSPSLNNRLTITKDTSKNQVVLTMTNMDPEDTATYYCAHFFSHYDSSNYYYGSWFDPWGQGTLVTVSS
VL: EIVLTQSPGTLSLSPGERATLSCRASQSFDSRYLGWYQQKSGQAPRLLIYGASSRATGIPDRFSGSGSGTDFTLTISRLEPEDFAVYYCQQFGDSPFTFGQGTKLEIKR
notes: also called monoclonal antibody 65; 65IgG
Neutralization activity (IC50) against pseudo-virus [1]: 0.97 ng/mL
Neutralization Effects (IC50) against SARS-CoV-2 pseudo-viruses [2]: 0.709 ng/mL
EC50 [3]: 17.3 pM
